Reference: patent US7723122

Biological target: protein A (UniProt P38507)
Assay: SPR, BIACORE 3000, protein A immobilised on CM5 chip, 4.4 ug/ml BSA in flow at 20 ul/min; nonlinear regression with Rmax fixed at 880 RU

BSA (molecular weight: 66,200) (from UniProt P02769 25-607) (other; other documents disagree on this pair)
koff: 0.11 s⁻¹
kon: 880000 M⁻¹ s⁻¹
